Measurements published in paper PMC5768801, “The PII signaling protein from red algae represents an evolutionary link between cyanobacterial and Chloroplastida PII proteins” (Scientific Reports, 2018).

Substrate: CC(=O)N[C@@H](CCC(=O)O)C(=O)O
Assay: purified protein, by the assay type
Conditions: pH 7.5

B1: ScNAGK (Synechocystis sp. PCC 6803 substr. Kazusa) (protein)
chain: MSSTQDYIGEEAATRVKILSEALPYIQHFAGRTVVVKYGGAAMKDSNLKDKVIRDIVFMASVGIRPVVVHGGGPEINTWLDKVGIEPQFKDGLRVTDAATMDIVEMVLVGRVNKELVNLINQAGGKAVGLCGKDGQLMTARTMTNKDVGFVGEVSSVDARVVETLVKSGYIPVISSVAADEFGQAHNINADTCAGELAAALGAEKLILLTDTRGILRDYKDPSTLIHKLDIQQARELIGSGIVAGGMIPKVTCCVRSLAQGVRAAHILDGRLPHALLLEVFTDLGIGSMIVASGYDL
- Km: 16.23 mM
